According to paper PMC5159498, “IQGAP1 Interaction with RHO Family Proteins Revisited” (The Journal of Biological Chemistry, 2016):

Legend:
Conditions in all cases: both partners purified
[1] = target: T1, IQGAP1 GRD1-RGCT wild type (aa 877-1558) (human, UniProt P46940 877-1558); assay: stopped-flow fluorometry; tGppNHp (tamra-GppNHp)-bound CDC42 or CDC42 Q61L (0.2 μM) rapidly mixed with IQGAP1 variant (2-10 μM GRD1-CT for Q61L); Kd = koff/kon; 30 mM Tris-HCl pH 7.5, 10 mM KH2PO4/K2HPO4, 5 mM MgCl2, 3 mM DTT
T1 construct: human IQGAP1, GRD and RGCT domains, lacks the last 99 amino acids, aa 877-1558; also called GRD1-RGCT^WT; IQGAP1^877-1558
T1 sequence (looked up): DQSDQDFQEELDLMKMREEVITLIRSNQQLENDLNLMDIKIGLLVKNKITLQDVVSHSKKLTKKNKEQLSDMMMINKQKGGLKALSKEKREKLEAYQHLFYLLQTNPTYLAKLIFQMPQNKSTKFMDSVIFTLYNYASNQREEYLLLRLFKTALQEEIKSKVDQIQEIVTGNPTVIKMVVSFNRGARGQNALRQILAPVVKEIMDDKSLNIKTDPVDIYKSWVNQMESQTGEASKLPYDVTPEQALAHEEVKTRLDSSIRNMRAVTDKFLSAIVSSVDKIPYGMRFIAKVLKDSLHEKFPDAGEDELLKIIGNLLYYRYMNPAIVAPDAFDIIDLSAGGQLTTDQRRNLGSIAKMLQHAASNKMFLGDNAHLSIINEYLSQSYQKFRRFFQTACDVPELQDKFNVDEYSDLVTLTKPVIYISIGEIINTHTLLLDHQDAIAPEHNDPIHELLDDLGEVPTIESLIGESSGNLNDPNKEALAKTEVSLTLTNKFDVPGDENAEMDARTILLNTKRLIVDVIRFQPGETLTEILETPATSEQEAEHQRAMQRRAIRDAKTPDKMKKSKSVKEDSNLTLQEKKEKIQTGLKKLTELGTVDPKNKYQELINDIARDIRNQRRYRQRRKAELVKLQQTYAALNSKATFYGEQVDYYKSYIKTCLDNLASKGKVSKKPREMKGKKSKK

[2] = target: T2, IQGAP1 GRD1-RGCT S1443E (aa 877-1558) (human, UniProt P46940 877-1558, S1443E); assay: as above
T2 construct: human IQGAP1 aa 877-1558 with the phosphomimetic mutation S1443E (printed as S1143E in the methods, S1443E everywhere else), from the vector pET46 EkLIC; source: E. coli (pLysS BL21(DE3), CodonPlusRIL or BL21(Rosetta)), purified (Ni-NTA, gel filtration)
T2 sequence (looked up): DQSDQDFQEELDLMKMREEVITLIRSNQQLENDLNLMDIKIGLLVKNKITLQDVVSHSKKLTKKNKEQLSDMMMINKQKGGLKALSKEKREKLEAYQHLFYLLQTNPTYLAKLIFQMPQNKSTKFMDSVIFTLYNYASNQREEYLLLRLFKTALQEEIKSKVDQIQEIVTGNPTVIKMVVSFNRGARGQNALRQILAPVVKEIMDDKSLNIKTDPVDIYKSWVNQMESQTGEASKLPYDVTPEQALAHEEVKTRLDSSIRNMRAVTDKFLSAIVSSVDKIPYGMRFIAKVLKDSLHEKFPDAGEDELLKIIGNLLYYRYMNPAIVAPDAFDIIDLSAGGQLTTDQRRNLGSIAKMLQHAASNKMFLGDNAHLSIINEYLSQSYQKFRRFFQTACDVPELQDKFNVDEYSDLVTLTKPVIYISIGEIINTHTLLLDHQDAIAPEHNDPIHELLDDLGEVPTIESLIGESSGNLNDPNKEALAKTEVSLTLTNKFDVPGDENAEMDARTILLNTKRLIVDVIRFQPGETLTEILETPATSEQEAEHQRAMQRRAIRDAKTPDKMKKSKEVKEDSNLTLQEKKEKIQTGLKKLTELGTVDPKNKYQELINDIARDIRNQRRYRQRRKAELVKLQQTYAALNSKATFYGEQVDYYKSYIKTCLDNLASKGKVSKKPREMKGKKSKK

[3] = target: T3, IQGAP1 GRD1-CT (aa 863-1657) (human, UniProt P46940 863-1657); assay: stopped-flow fluorometry; mGppNHp-bound RHO protein (0.2 μM) rapidly mixed with IQGAP1 variant (2 μM, or 2-12 μM for kon); koff by displacement with 10 μM non-fluorescent GppNHp-bound GTPase; Kd = koff/kon; 30 mM Tris-HCl pH 7.5, 10 mM KH2PO4/K2HPO4, 5 mM MgCl2, 3 mM DTT
T3 construct: human IQGAP1, GRD, RGCT and CT domains, aa 863-1657; The GST tag was cleaved 'if needed'; also called C-terminal half of IQGAP1; C-terminal 795 amino acids of IQGAP1
T3 sequence (looked up): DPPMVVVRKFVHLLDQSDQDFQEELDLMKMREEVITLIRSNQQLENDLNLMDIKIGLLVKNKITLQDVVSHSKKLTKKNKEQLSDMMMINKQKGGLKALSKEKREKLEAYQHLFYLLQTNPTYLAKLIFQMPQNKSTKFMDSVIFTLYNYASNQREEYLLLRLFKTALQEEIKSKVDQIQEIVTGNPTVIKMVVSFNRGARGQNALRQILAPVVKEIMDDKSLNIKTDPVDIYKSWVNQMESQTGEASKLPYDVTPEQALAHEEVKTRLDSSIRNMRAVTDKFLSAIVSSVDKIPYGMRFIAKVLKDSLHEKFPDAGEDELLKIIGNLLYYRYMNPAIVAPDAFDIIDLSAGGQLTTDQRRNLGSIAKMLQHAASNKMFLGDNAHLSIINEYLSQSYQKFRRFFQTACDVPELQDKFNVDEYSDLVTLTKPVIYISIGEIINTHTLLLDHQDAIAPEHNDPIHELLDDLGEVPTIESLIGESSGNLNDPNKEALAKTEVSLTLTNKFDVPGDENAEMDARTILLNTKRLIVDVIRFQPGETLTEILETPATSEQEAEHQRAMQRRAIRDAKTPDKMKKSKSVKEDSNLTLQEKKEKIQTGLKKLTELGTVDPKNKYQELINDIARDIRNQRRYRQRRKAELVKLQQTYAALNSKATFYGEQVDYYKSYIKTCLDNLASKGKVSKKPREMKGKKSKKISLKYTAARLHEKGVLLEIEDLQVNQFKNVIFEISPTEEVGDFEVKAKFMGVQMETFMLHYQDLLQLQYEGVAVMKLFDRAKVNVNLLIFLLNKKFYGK

Kd [1]: 1450 nM
Kd [2]: 4190 nM
Kd [3]: 300 nM
B1: CDC42 (aa 1-178) (domain or fragment)
chain: not shown
notes: human CDC42, C-terminally truncated, aa 1-178; Loaded non-covalently with mGppNHp, tGppNHp, mGDP or non-fluorescent GppNHp; the nucleotide is named in the format of each assay; also called CDC42^WT; CDC42-mGppNHp
